Non-standard residues stand in square brackets, D forms with d. Residues, ends and D or L forms follow the SMILES beside them. Primed or numbered codes have the meaning given here. No end group written: not given here. *: point of attachment. 5FAM = O=C1OC2(c3ccc(O)cc3Oc3cc(O)ccc32)c2ccc(C(=O)*)cc21; Me′ = methyl group capping the C-terminus; F(-Me) = not defined here
Each molecule was assayed against T1, interactions between Talin 1 (TLN1) and integrin subunit beta (ITGB) (Homo sapiens, UniProt Q9Y490) (assay: Flip-flop detection mechanism on DNA origami (LgBit/SmBit luminescence), inhibitor screening). Details: inhibition of binding between TLN1 and ITBG.
T1 construct: LgBit or SmBit (N-terminal of the HaloTag); made in house
Assay type: biochemical
Procedure, shortened: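 Peptide inhibitors (13-mer, modified from ITGB3 intracellular region) tested in flip-flop system: HaloTag fusions on DNA origami carrying TLN1 or ITGB1 subunits with LgBit/SmBit at N-termini. Inhibiting TLN1–ITGB binding lets LgBit-SmBit assemble, giving luminescence; IC50 calculated from this signal.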

Molecule	Inhibitory activity
CSCC[C@H](NC(=O)[C@H](CCCCN)NC(=O)[C@H](CCC(=O)O)NC(=O)[C@H](CCCCN)NC(=O)[C@H](CCC(=O)O)NC(=O)[C@H](Cc1ccccc1)NC(=O)[C@H](CCCCN)NC(=O)[C@@H]1CCCN1)C(=O)N[C@@H](CC(N)=O)C(=O)N[C@@H](CS)C(=O)N[C@@H](CCCCN)C(=O)N[C@@H](Cc1c[nH]c2ccccc12)C(=O)N[C@@H](CCSC)C(=O)N[C@H](C(=O)O)[C@@H](C)O [FIYM54] (H-PKFEKEKMNCKWMT-OH)	no inhibition
CSCC[C@H](NC(=O)[C@H](CCCCN)NC(=O)[C@H](CCC(=O)O)NC(=O)[C@H](CCCCN)NC(=O)[C@H](CCC(=O)O)NC(=O)[C@H](Cc1ccccc1)NC(=O)[C@H](CCCCN)NC(=O)[C@@H]1CCCN1C(=O)CN)C(=O)N[C@@H](CC(N)=O)C(=O)N[C@@H](CS)C(=O)N[C@@H](CCCCN)C(=O)N[C@@H](Cc1c[nH]c2ccccc12)C(=O)N[C@@H](CCSC)C(=O)N[C@H](C(=O)O)[C@@H](C)O [FIYM55] (H-GPKFEKEKMNCKWMT-OH)	no inhibition
CC[C@H](C)[C@H](NC(=O)[C@@H]1CCCN1C(=O)[C@H](CC(N)=O)NC(=O)[C@H](CCC(=O)O)NC(=O)[C@H](CCC(N)=O)NC(=O)[C@@H](NC(=O)[C@@H](NC(=O)[C@H](CCCNC(=N)N)NC(=O)[C@H](Cc1c[nH]c2ccccc12)NC(=O)[C@H](CCCCN)NC(=O)[C@H](CS)NC(=O)[C@H](CC(N)=O)NC(=O)[C@H](CCSC)NC(=O)[C@H](CCCCN)NC(=O)[C@H](CCC(=O)O)NC(=O)[C@H](CCCCN)NC(=O)[C@H](CCC(=O)O)NC(=O)[C@H](Cc1ccccc1)NC(=O)[C@@H](N)CCCCN)C(C)C)[C@@H](C)O)C(=O)N[C@@H](Cc1ccc(O)cc1)C(=O)N[C@@H](CCCCN)C(=O)O [FIYM56] (H-KFEKEKMNCKWRVTQENPIYK-OH)	no inhibition
KF(-CI)EKEKMNCKWMT (KFEKEKMNCKWMT) [FIYM18]	no inhibition

Same assay, conditions: inhibition of binding between TLN1 and ITBG, read-out: Inhibitory activity

Molecule	IC50
Ace-KFEKEKMNCKWMT-Me (Ace-KFEKEKMNCKWMT-{Me′}) [FIYM15]	41.2 µM
KF(-Me)EKEKMNCKWMT (KFEKEKMNCKWMT) [FIYM19]	212 µM

Same assay, conditions: inhibition of binding between TLN1 and ITBG, µM, read-out: Inhibitory activity

Molecule	IC50
CSCC[C@H](NC(=O)[C@H](CCCCN)NC(=O)[C@H](CCC(=O)O)NC(=O)[C@H](CCCCN)NC(=O)[C@H](CCC(=O)O)NC(=O)[C@H](Cc1ccccc1)NC(=O)[C@H](CCCCN)NC(=O)[C@H](Cc1c[nH]cn1)NC(=O)[C@H](Cc1c[nH]cn1)NC(=O)[C@H](Cc1c[nH]cn1)NC(=O)[C@H](Cc1c[nH]cn1)NC(=O)[C@H](Cc1c[nH]cn1)NC(=O)[C@H](Cc1c[nH]cn1)NC(=O)[C@@H](N)CCSC)C(=O)N[C@@H](CC(N)=O)C(=O)N[C@@H](CS)C(=O)N[C@@H](CCCCN)C(=O)N[C@@H](Cc1c[nH]c2ccccc12)C(=O)N[C@@H](CCSC)C(=O)N[C@H](C(=O)O)[C@@H](C)O [FIYM49] (H-MHHHHHHKFEKEKMNCKWMT-OH)	107 µM

Each molecule was assayed against Talin 1 (TLN1) (UniProt Q9Y490) (assay: flip-flop luminescence detection on DNA origami, inhibition of the TLN1-ITGB complex). Details: not given.
Talin 1 (TLN1), sequence (Q9Y490 1-405): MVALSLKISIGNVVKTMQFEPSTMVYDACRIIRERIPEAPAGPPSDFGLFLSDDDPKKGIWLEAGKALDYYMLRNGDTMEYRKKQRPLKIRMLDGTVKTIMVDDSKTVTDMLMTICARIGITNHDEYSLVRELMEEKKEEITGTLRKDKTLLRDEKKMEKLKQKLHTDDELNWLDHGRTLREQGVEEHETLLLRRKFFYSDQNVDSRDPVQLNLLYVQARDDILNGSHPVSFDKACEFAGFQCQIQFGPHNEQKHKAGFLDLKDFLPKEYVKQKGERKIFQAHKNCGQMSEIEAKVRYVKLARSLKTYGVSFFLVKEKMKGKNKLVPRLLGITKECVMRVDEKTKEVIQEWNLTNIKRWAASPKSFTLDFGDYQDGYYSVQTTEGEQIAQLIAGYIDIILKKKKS

Molecule	IC50
Ace-KFEKEKMNCKWMT-{Me′} [FIYM15]	41.2 µM
K[F(-Me)]EKEKMNCKWMT (reading uncertain; also: printed as KF(-Me)EKEKMNCKWMT) [FIYM19]	212 µM
5FAM-KFEKEKMNCKWMT [FIYM21]	38.1 µM
RFEKEKMMCKWMT [FIYM31]	1040 µM
KFEKEKMNC(Me)KWMT [FIYM44]	1070 µM
KYEKEKMNAKWDT [FIYM50]	1860 µM
KYEKEKMNCKWMT [FIYM51]	1830 µM
DFEKEKMNCKWMT [FIYM52]	8130 µM
EFEKEKMNCKWMT [FIYM53]	42000 µM

From patent EP4793641A1, “NOVEL METHOD FOR ANALYZING BIOMOLECULAR INTERACTIONS” (Kyoto University, priority 2023, dated 2025)
